Patent US20230002480A1

What was measured:
Assay in all cases: cell-based or functional assay
[1] = molecular target: HIV-1 Env of pseudovirus 1006_11_C3_1601 (HIV-1)
[2] = molecular target: HIV-1 Env of pseudovirus 1056_10_TA11_1826 (HIV-1)
[3] = molecular target: HIV-1 Env of pseudovirus 1394C9G1(Rev-) (HIV-1)
[4] = molecular target: HIV-1 Env of pseudovirus 191084 B7-19 (HIV-1)
[5] = molecular target: HIV-1 Env of pseudovirus 231965.c01 (HIV-1)
[6] = molecular target: HIV-1 Env of pseudovirus 246F C1G (HIV-1)
[7] = molecular target: HIV-1 Env of pseudovirus 3817.v2.c59 (HIV-1)
[8] = molecular target: HIV-1 Env of pseudovirus 620345.c01 (HIV-1)
[9] = molecular target: HIV-1 Env of pseudovirus 6545.v4.c1 (HIV-1)
[10] = molecular target: HIV-1 Env of pseudovirus 6811.v7.c18 (HIV-1)
[11] = molecular target: HIV-1 Env of pseudovirus A07412M1.vrc12 (HIV-1)
[12] = molecular target: HIV-1 Env of pseudovirus BJOX010000.06.2 (HIV-1)
[13] = molecular target: HIV-1 Env of pseudovirus C2101.c01 (HIV-1)
[14] = molecular target: HIV-1 Env of pseudovirus CNE5 (HIV-1)
[15] = molecular target: HIV-1 Env of pseudovirus Ce0393_C3 (HIV-1)
[16] = molecular target: HIV-1 Env of pseudovirus Ce1172_H1 (HIV-1)
[17] = molecular target: HIV-1 Env of pseudovirus Ce703010054_2A2 (HIV-1)
[18] = molecular target: HIV-1 Env of pseudovirus Ce704809221_1B3 (HIV-1)
[19] = molecular target: HIV-1 Env of pseudovirus Du156.12 (HIV-1)
[20] = molecular target: HIV-1 Env of pseudovirus Du422.1 (HIV-1)
[21] = molecular target: HIV-1 Env of pseudovirus PVO.4 (HIV-1)
[22] = molecular target: HIV-1 Env of pseudovirus Q769.d22 (HIV-1)
[23] = molecular target: HIV-1 Env of pseudovirus QH0692.42 (HIV-1)
[24] = molecular target: HIV-1 Env of pseudovirus R2184.c04 (HIV-1)
[25] = molecular target: HIV-1 Env of pseudovirus R3265.c06 (HIV-1)
[26] = molecular target: HIV-1 Env of pseudovirus SC05_8C11_2344 (HIV-1)
[27] = molecular target: HIV-1 Env of pseudovirus SC422661.8 (HIV-1)
[28] = molecular target: HIV-1 Env of pseudovirus T251-18 (HIV-1)
[29] = molecular target: HIV-1 Env of pseudovirus T278-50 (HIV-1)
[30] = molecular target: HIV-1 Env of pseudovirus THRO4156.18 (HIV-1)
[31] = molecular target: HIV-1 Env of pseudovirus WITO4160.33 (HIV-1)
[32] = molecular target: HIV-1 Env of pseudovirus X1193_c1 (HIV-1)
[33] = molecular target: HIV-1 Env of pseudovirus X2088_c9 (HIV-1)
[34] = molecular target: HIV-1 Env of pseudovirus X2131_C1_B5 (HIV-1)
[35] = molecular target: HIV-1 Env of pseudovirus ZM214M.PL15 (HIV-1)
[36] = molecular target: HIV-1 Env of pseudovirus ZM233M.PB6 (HIV-1)
[37] = molecular target: HIV-1 Env of pseudovirus ZM249M.PL1 (HIV-1)

3BNC117 (antibody)
neutralization IC50 [1]: 0.03 µg/mL
neutralization IC80 [1]: 0.1 µg/mL
neutralization IC50 [2]: 0.3 µg/mL
neutralization IC80 [2]: 1.82 µg/mL
neutralization IC50 [3]: > 50 µg/mL
neutralization IC80 [3]: > 50 µg/mL
neutralization IC50 [4]: 0.07 µg/mL
neutralization IC80 [4]: 0.23 µg/mL
IC50, titer in TZM.bl cells [5]: 0.05 µg/mL
IC80, titer in TZM.bl cells [5]: 0.22 µg/mL
neutralization IC50 [6]: 19.3 µg/mL
neutralization IC80 [6]: > 50 µg/mL
IC50, titer in TZM.bl cells [7]: 0.15 µg/mL
IC80, titer in TZM.bl cells [7]: 0.52 µg/mL
IC50, titer in TZM.bl cells [8]: > 15 µg/mL
IC80, titer in TZM.bl cells [8]: > 15 µg/mL
IC50, titer in TZM.bl cells [9]: > 50 µg/mL
IC80, titer in TZM.bl cells [9]: > 50 µg/mL
IC50, titer in TZM.bl cells [10]: 0.03 µg/mL
IC80, titer in TZM.bl cells [10]: 0.17 µg/mL
IC50, titer in TZM.bl cells [11]: 0.02 µg/mL
IC80, titer in TZM.bl cells [11]: 0.1 µg/mL
IC50, titer in TZM.bl cells [12]: 1.58 µg/mL
IC80, titer in TZM.bl cells [12]: 10.4 µg/mL
IC50, titer in TZM.bl cells [13]: 0.05 µg/mL
IC80, titer in TZM.bl cells [13]: 0.31 µg/mL
IC50, titer in TZM.bl cells [14]: 0.28 µg/mL
IC80, titer in TZM.bl cells [14]: 1.28 µg/mL
neutralization IC50 [15]: 0.2 µg/mL
neutralization IC80 [15]: 0.67 µg/mL
neutralization IC50 [16]: > 50 µg/mL
neutralization IC80 [16]: > 50 µg/mL
neutralization IC50 [17]: 0.37 µg/mL
neutralization IC80 [17]: 1.67 µg/mL
neutralization IC50 [18]: 0.08 µg/mL
neutralization IC80 [18]: 0.31 µg/mL
neutralization IC50 [19]: 0.02 µg/mL
neutralization IC80 [19]: 0.08 µg/mL
neutralization IC50 [20]: > 50 µg/mL
neutralization IC80 [20]: > 50 µg/mL
neutralization IC50 [21]: < 0.09 µg/mL
neutralization IC80 [21]: 0.19 µg/mL
neutralization IC50 [22]: 0.01 µg/mL
neutralization IC80 [22]: 0.04 µg/mL
neutralization IC50 [23]: 0.13 µg/mL
neutralization IC80 [23]: 0.49 µg/mL
IC50, titer in TZM.bl cells [24]: 0.03 µg/mL
IC80, titer in TZM.bl cells [24]: 0.1 µg/mL
IC50, titer in TZM.bl cells [25]: 0.48 µg/mL
IC80, titer in TZM.bl cells [25]: 13 µg/mL
neutralization IC50 [26]: 0.15 µg/mL
neutralization IC80 [26]: 0.51 µg/mL
neutralization IC50 [27]: 0.02 µg/mL
neutralization IC80 [27]: 0.08 µg/mL
IC50, titer in TZM.bl cells [28]: 0.26 µg/mL
IC80, titer in TZM.bl cells [28]: 0.82 µg/mL
IC50, titer in TZM.bl cells [29]: > 15 µg/mL
IC80, titer in TZM.bl cells [29]: > 15 µg/mL
neutralization IC50 [30]: 1.76 µg/mL
neutralization IC80 [30]: 10.1 µg/mL
neutralization IC50 [31]: 0.01 µg/mL
neutralization IC80 [31]: 0.04 µg/mL
IC50, titer in TZM.bl cells [32]: 0.06 µg/mL
IC80, titer in TZM.bl cells [32]: 0.25 µg/mL
IC50, titer in TZM.bl cells [33]: > 50 µg/mL
IC80, titer in TZM.bl cells [33]: > 50 µg/mL
IC50, titer in TZM.bl cells [34]: 0.43 µg/mL
IC80, titer in TZM.bl cells [34]: 1.96 µg/mL
neutralization IC50 [35]: 0.06 µg/mL
neutralization IC80 [35]: 0.52 µg/mL
neutralization IC50 [36]: 0.13 µg/mL
neutralization IC80 [36]: 0.85 µg/mL
neutralization IC50 [37]: 0.03 µg/mL
neutralization IC80 [37]: 0.11 µg/mL

NIH 45-46 (antibody)
neutralization IC50 [1]: 0.05 µg/mL
neutralization IC80 [1]: 0.31 µg/mL
neutralization IC50 [2]: 0.12 µg/mL
neutralization IC80 [2]: 0.59 µg/mL
neutralization IC50 [3]: 0.09 µg/mL
neutralization IC80 [3]: 0.38 µg/mL
neutralization IC50 [4]: 0.02 µg/mL
neutralization IC80 [4]: 0.07 µg/mL
IC50, titer in TZM.bl cells [5]: 0.1 µg/mL
IC80, titer in TZM.bl cells [5]: 0.1 µg/mL
neutralization IC50 [6]: > 50 µg/mL
neutralization IC80 [6]: > 50 µg/mL
IC50, titer in TZM.bl cells [7]: > 50 µg/mL
IC80, titer in TZM.bl cells [7]: > 50 µg/mL
IC50, titer in TZM.bl cells [8]: > 30 µg/mL
IC80, titer in TZM.bl cells [8]: > 30 µg/mL
IC50, titer in TZM.bl cells [9]: > 50 µg/mL
IC80, titer in TZM.bl cells [9]: > 50 µg/mL
IC50, titer in TZM.bl cells [10]: 0.03 µg/mL
IC80, titer in TZM.bl cells [10]: 0.13 µg/mL
IC50, titer in TZM.bl cells [11]: 0.03 µg/mL
IC80, titer in TZM.bl cells [11]: 0.13 µg/mL
IC50, titer in TZM.bl cells [12]: 0.87 µg/mL
IC80, titer in TZM.bl cells [12]: 6.37 µg/mL
IC50, titer in TZM.bl cells [13]: 12.8 µg/mL
IC80, titer in TZM.bl cells [13]: > 50 µg/mL
IC50, titer in TZM.bl cells [14]: 0.09 µg/mL
IC80, titer in TZM.bl cells [14]: 0.41 µg/mL
neutralization IC50 [15]: 0.32 µg/mL
neutralization IC80 [15]: 1.07 µg/mL
neutralization IC50 [16]: > 50 µg/mL
neutralization IC80 [16]: > 50 µg/mL
neutralization IC50 [17]: 0.22 µg/mL
neutralization IC80 [17]: 0.97 µg/mL
neutralization IC50 [18]: 0.15 µg/mL
neutralization IC80 [18]: 0.88 µg/mL
neutralization IC50 [19]: 0.01 µg/mL
neutralization IC80 [19]: 0.05 µg/mL
neutralization IC50 [20]: > 50 µg/mL
neutralization IC80 [20]: > 50 µg/mL
neutralization IC50 [21]: 0.17 µg/mL
neutralization IC80 [21]: 0.47 µg/mL
neutralization IC50 [22]: 0.01 µg/mL
neutralization IC80 [22]: 0.04 µg/mL
neutralization IC50 [23]: 0.55 µg/mL
neutralization IC80 [23]: 1.56 µg/mL
IC50, titer in TZM.bl cells [24]: 0.03 µg/mL
IC80, titer in TZM.bl cells [24]: 0.12 µg/mL
IC50, titer in TZM.bl cells [25]: 0.04 µg/mL
IC80, titer in TZM.bl cells [25]: 0.44 µg/mL
neutralization IC50 [26]: 0.14 µg/mL
neutralization IC80 [26]: 0.38 µg/mL
neutralization IC50 [27]: 0.01 µg/mL
neutralization IC80 [27]: 0.07 µg/mL
IC50, titer in TZM.bl cells [28]: 5.26 µg/mL
IC80, titer in TZM.bl cells [28]: 5.26 µg/mL
IC50, titer in TZM.bl cells [29]: > 30 µg/mL
IC80, titer in TZM.bl cells [29]: > 30 µg/mL
neutralization IC50 [30]: 1.59 µg/mL
neutralization IC80 [30]: 6.02 µg/mL
neutralization IC50 [31]: 0.01 µg/mL
neutralization IC80 [31]: 0.08 µg/mL
IC50, titer in TZM.bl cells [32]: 0.04 µg/mL
IC80, titer in TZM.bl cells [32]: 0.16 µg/mL
IC50, titer in TZM.bl cells [33]: > 50 µg/mL
IC80, titer in TZM.bl cells [33]: > 50 µg/mL
IC50, titer in TZM.bl cells [34]: 0.2 µg/mL
IC80, titer in TZM.bl cells [34]: 0.9 µg/mL
neutralization IC50 [35]: 0.05 µg/mL
neutralization IC80 [35]: 0.39 µg/mL
neutralization IC50 [36]: 1.86 µg/mL
neutralization IC80 [36]: 16.5 µg/mL
neutralization IC50 [37]: 0.02 µg/mL
neutralization IC80 [37]: 0.06 µg/mL
